Laboratory results reported in patent US10428140B2, “Anti-EphA4 antibody” (EISAI R&D MANAGEMENT CO., LTD., priority 2015, dated 2019).

How the values were obtained:
Experiment in all cases: Selectivity ELISA of humanized antibodies for human Eph receptor
Format in all cases: binding
Settings in all cases: coated protein 1 nM
SEAP-His = SEAP-His (Homo sapiens, UniProt P05187)
Method in brief: (§1)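 Read-out is A450 after TMB development stopped with 1N H2SO4. Plates bore anti-His-captured human Eph extracellular region-SEAP-His proteins at 1 nM final, made in Expi293F cells. Humanized antibody binding ran 1 h at room temperature before HRP-labeled anti-IgG detection.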

human EphA3 = biological target: T1, human EphA3 (Homo sapiens, UniProt P29320)
T1 construct: a protein of the extracellular region of each human Eph receptor fused with the SEAP protein and the His tag; made in house; host or cells: Expi293F cells (culture supernatant)
T1 sequence (P29320 21-541 limits assumed): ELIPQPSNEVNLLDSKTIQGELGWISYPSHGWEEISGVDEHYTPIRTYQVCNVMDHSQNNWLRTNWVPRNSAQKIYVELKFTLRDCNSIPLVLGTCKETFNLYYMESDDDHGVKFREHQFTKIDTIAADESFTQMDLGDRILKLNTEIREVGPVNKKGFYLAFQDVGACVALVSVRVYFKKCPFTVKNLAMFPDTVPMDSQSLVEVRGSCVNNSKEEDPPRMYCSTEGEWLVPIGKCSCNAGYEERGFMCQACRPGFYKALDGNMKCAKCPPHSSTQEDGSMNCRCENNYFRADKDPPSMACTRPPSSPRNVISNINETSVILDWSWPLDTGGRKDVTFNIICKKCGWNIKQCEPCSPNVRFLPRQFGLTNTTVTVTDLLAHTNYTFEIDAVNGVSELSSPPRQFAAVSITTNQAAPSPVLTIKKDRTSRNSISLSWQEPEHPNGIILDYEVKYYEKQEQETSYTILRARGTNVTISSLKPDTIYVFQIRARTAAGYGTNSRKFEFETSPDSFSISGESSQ
Method in brief: as §1

human EphA8 = biological target: T2, human EphA8 (Homo sapiens, UniProt P29322)
T2 construct: a protein of the extracellular region of each human Eph receptor fused with the SEAP protein and the His tag; made in house; host or cells: Expi293F cells (culture supernatant)
T2 sequence (P29322 28-542 limits assumed): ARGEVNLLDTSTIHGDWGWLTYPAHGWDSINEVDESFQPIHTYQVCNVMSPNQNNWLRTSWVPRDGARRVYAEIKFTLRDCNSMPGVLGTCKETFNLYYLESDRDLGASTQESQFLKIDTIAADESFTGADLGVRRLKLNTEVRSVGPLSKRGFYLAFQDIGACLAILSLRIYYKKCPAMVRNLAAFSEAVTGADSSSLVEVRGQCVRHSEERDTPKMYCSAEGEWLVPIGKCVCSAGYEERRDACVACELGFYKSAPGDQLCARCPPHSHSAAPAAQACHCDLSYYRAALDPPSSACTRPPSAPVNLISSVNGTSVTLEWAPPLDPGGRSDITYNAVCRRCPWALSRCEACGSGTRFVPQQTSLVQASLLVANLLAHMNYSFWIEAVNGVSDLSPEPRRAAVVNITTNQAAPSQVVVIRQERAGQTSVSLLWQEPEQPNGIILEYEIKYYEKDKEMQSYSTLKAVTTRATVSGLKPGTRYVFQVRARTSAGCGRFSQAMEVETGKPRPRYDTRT
Method in brief: as §1

human EphB3 = biological target: T3, human EphB3 (Homo sapiens, UniProt P54753)
T3 construct: a protein of the extracellular region of each human Eph receptor fused with the SEAP protein and the His tag; made in house; host or cells: Expi293F cells
T3 sequence (P54753 34-559 limits assumed): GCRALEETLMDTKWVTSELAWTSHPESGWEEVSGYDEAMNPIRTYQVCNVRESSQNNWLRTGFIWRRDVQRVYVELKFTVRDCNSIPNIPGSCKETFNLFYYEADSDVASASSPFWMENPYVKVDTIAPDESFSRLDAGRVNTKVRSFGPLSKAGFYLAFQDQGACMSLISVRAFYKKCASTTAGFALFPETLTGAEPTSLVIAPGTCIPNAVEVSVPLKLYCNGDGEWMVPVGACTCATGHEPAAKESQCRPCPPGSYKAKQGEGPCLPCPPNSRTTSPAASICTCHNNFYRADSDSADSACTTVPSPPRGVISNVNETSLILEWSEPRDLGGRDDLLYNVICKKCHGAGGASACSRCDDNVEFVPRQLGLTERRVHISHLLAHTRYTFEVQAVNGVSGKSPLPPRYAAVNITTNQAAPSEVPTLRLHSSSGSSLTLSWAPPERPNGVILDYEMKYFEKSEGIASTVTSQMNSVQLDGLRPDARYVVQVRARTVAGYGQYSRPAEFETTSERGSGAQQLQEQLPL
Method in brief: as §1

human EphA2 = biological target: T4, human EphA2 (Homo sapiens, UniProt P29317)
T4 construct: a protein of the extracellular region of each human Eph receptor fused with the SEAP protein and the His tag; made in house; host or cells: Expi293F cells (culture supernatant)
Method in brief: as §1

T4 sequence (P29317 24-537 limits assumed): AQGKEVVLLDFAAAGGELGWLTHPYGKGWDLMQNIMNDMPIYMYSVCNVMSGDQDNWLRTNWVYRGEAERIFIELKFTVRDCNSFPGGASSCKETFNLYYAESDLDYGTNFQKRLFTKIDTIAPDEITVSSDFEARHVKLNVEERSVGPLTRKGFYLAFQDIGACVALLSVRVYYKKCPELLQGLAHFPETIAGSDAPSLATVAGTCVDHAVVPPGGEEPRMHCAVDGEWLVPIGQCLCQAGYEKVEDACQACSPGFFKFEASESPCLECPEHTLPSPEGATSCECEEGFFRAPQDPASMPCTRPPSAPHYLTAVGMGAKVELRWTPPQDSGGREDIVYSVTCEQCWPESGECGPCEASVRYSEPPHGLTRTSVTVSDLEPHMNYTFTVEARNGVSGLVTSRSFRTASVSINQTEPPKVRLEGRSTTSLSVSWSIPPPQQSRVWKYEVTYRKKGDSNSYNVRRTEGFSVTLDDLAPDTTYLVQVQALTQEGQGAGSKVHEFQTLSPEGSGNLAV
Sequence of SEAP-His (P05187 23-511 limits assumed): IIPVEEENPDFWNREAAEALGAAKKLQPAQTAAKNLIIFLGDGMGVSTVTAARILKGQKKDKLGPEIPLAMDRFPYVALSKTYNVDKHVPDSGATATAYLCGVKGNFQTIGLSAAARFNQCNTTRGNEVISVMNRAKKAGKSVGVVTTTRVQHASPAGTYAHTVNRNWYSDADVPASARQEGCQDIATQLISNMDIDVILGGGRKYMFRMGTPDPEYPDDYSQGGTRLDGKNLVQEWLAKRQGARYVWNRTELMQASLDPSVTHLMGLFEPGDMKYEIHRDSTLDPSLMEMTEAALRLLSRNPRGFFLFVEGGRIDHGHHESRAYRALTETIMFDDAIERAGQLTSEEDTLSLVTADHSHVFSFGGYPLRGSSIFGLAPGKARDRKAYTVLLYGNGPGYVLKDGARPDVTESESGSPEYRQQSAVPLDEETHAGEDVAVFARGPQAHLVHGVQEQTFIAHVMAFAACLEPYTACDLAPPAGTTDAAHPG

B1: 76 (antibody, V domains shown)
VH: QVQLVQSGSELKKPGASVKVSCKASGYTFTDYSMHWVRQAPGQGLKWMGWINTETGEPTYAQGFTGRFVFSLDTSVSTAYLQISSLKAEDTAVYYCARIPLYYYGSRYWYFDVWGQGTTVTVSS
VL: DIQMTQSPSSLSASVGDRVTITCRASENIYRNLAWYQQKPGKAPKLLVYAATNLADGVPSRFSGSGSGTDYTLTISSLQPEDFATYYCQHFWGTPWTFGQGTKVEIK
modifications: synthetic humanized antibody heavy chain variable region sequence; synthetic humanized antibody light chain variable region sequence
- SEAP-His: absorbance at 450 nm, percentage with respect to hEphA4-SEAP-His as 100% (SEAP-His): 5.5%
- hEphA3-SEAP-: absorbance at 450 nm, percentage with respect to hEphA4-SEAP-His as 100% (human EphA3): 4.9%
- hEphA8-SEAP-: absorbance at 450 nm, percentage with respect to hEphA4-SEAP-His as 100% (human EphA8): 5.5%
- hEphB3-SEAP-: absorbance at 450 nm, percentage with respect to hEphA4-SEAP-His as 100% (human EphB3): 5.0%
- hEphA2-SEAP-: absorbance at 450 nm, percentage with respect to hEphA4-SEAP-His as 100% (human EphA2): 4.8%

B2: 156 (antibody, V domains shown)
VH: QIQLVQSGSELKKPGASVKVSCKASGYTFTDYSMHWVRQAPGQGLKWMGWINTETGEPTYAQGFTGRFVFSLDTSVSTAYLQISSLKAEDTAVYYCARIPLYYYGSRYWYFDVWGQGTTVTVSS
VL: DIQMTQSPSSLSASVGDRVTITCRASENIYRNLAWYQQKPGKAPQLLLYAATNLADGVPSRFSGSGSGTDYTLTISSLQPEDFATYYCQHFWGTPWTFGQGTKVEIK
modifications: synthetic humanized antibody heavy chain variable region sequence; synthetic humanized antibody light chain variable region sequence
- SEAP-His: absorbance at 450 nm, percentage with respect to hEphA4-SEAP-His as 100% (SEAP-His): 5.4%
- hEphA3-SEAP-: absorbance at 450 nm, percentage with respect to hEphA4-SEAP-His as 100% (human EphA3): 5.7%
- hEphA8-SEAP-: absorbance at 450 nm, percentage with respect to hEphA4-SEAP-His as 100% (human EphA8): 5.5%
- hEphB3-SEAP-: absorbance at 450 nm, percentage with respect to hEphA4-SEAP-His as 100% (human EphB3): 5.6%
- hEphA2-SEAP-: absorbance at 450 nm, percentage with respect to hEphA4-SEAP-His as 100% (human EphA2): 5.5%

B3: 136 (antibody, V domains shown)
VH: QVQLVQSGSELKKPGASVKVSCKASGYTFTDYSMHWVRQAPGQGLKWMGWINTETGEPTYADDFKGRFVFSLDTSVSTAYLQISSLKAEDTAVYYCARIPLYYYGSRYWYFDVWGQGTTVTVSS
VL: EIVMTQSPATLSVSPGERATLSCRASENIYRNLAWYQQKPGQSPRLLIYAATNLADGIPARFSGSGSGTEYTLTISSLQSEDFAVYYCQHFWGTPWTFGQGTKVEIK
modifications: synthetic humanized antibody heavy chain variable region sequence; synthetic humanized antibody light chain variable region sequence
- SEAP-His: absorbance at 450 nm, percentage with respect to hEphA4-SEAP-His as 100% (SEAP-His): 5.2%
- hEphA3-SEAP-: absorbance at 450 nm, percentage with respect to hEphA4-SEAP-His as 100% (human EphA3): 5.2%
- hEphA8-SEAP-: absorbance at 450 nm, percentage with respect to hEphA4-SEAP-His as 100% (human EphA8): 5.4%
- hEphB3-SEAP-: absorbance at 450 nm, percentage with respect to hEphA4-SEAP-His as 100% (human EphB3): 5.5%
- hEphA2-SEAP-: absorbance at 450 nm, percentage with respect to hEphA4-SEAP-His as 100% (human EphA2): 5.1%

B4: 67 (antibody, V domains shown)
VH: QIQLVQSGSELKKPGASVKVSCKASGYTFTDYSMHWVRQAPGQGLKWMGWINTETGEPTYAQGFTGRFVFSLDTSVSTAYLQISSLKAEDTAVYYCARIPLYYYGSRYWYFDVWGQGTTVTVSS
VL: DIQMTQSPSSLSASVGDRVTITCRASENIYRNLAWYQQKPGKAPKLLVYAATNLADGVPSRFSGSGSGTDYTLTISSLQPEDFATYYCQHFWGTPWTFGQGTKVEIK
modifications: synthetic humanized antibody heavy chain variable region sequence; synthetic humanized antibody light chain variable region sequence
- SEAP-His: absorbance at 450 nm, percentage with respect to hEphA4-SEAP-His as 100% (SEAP-His): 5.0%
- hEphA3-SEAP-: absorbance at 450 nm, percentage with respect to hEphA4-SEAP-His as 100% (human EphA3): 4.8%
- hEphA8-SEAP-: absorbance at 450 nm, percentage with respect to hEphA4-SEAP-His as 100% (human EphA8): 4.7%
- hEphB3-SEAP-: absorbance at 450 nm, percentage with respect to hEphA4-SEAP-His as 100% (human EphB3): 4.9%
- hEphA2-SEAP-: absorbance at 450 nm, percentage with respect to hEphA4-SEAP-His as 100% (human EphA2): 4.6%

B5: 78 (antibody, V domains shown)
VH: QVQLVQSGSELKKPGASVKVSCKASGYTFTDYSMHWVRQAPGQGLKWMGWINTETGEPTYADDFKGRFVFSLDTSVSTAYLQISSLKAEDTAVYYCARIPLYYYGSRYWYFDVWGQGTTVTVSS
VL: DIQMTQSPSSLSASVGDRVTITCRASENIYRNLAWYQQKPGKAPKLLVYAATNLADGVPSRFSGSGSGTDYTLTISSLQPEDFATYYCQHFWGTPWTFGQGTKVEIK
modifications: synthetic humanized antibody heavy chain variable region sequence; synthetic humanized antibody light chain variable region sequence
- SEAP-His: absorbance at 450 nm, percentage with respect to hEphA4-SEAP-His as 100% (SEAP-His): 5.3%
- hEphA3-SEAP-: absorbance at 450 nm, percentage with respect to hEphA4-SEAP-His as 100% (human EphA3): 5.1%
- hEphA8-SEAP-: absorbance at 450 nm, percentage with respect to hEphA4-SEAP-His as 100% (human EphA8): 5.4%
- hEphB3-SEAP-: absorbance at 450 nm, percentage with respect to hEphA4-SEAP-His as 100% (human EphB3): 5.2%
- hEphA2-SEAP-: absorbance at 450 nm, percentage with respect to hEphA4-SEAP-His as 100% (human EphA2): 4.9%

B6: 77 (antibody, V domains shown)
VH: QVQLVQSGSELKKPGASVKVSCKASGYTFTDYSMHWVRQAPGQGLEWMGWINTETGEPTYADDFKGRFVFSLDTSVSTAYLQISSLKAEDTAVYYCARIPLYYYGSRYWYFDVWGQGTTVTVSS
VL: DIQMTQSPSSLSASVGDRVTITCRASENIYRNLAWYQQKPGKAPKLLVYAATNLADGVPSRFSGSGSGTDYTLTISSLQPEDFATYYCQHFWGTPWTFGQGTKVEIK
modifications: synthetic humanized antibody heavy chain variable region sequence; synthetic humanized antibody light chain variable region sequence
- SEAP-His: absorbance at 450 nm, percentage with respect to hEphA4-SEAP-His as 100% (SEAP-His): 4.7%
- hEphA3-SEAP-: absorbance at 450 nm, percentage with respect to hEphA4-SEAP-His as 100% (human EphA3): 4.5%
- hEphA8-SEAP-: absorbance at 450 nm, percentage with respect to hEphA4-SEAP-His as 100% (human EphA8): 4.8%
- hEphB3-SEAP-: absorbance at 450 nm, percentage with respect to hEphA4-SEAP-His as 100% (human EphB3): 4.6%
- hEphA2-SEAP-: absorbance at 450 nm, percentage with respect to hEphA4-SEAP-His as 100% (human EphA2): 4.5%
